B1: Flag-tagged Ash2l-N terminus (1-172, the PHD domain) (other, UniProt Q91X20 1-172, looked up)
chain: MAAAGAGPGPGVSAGPGPGAAASATTAEDRETEPVAAGAGEGPSAAPGAEPSSGEAESGDANLVDVSGLETESSNGKDTLEGTGDTSEVMDTQAGSVDEENGRQLGEVELQCGICTKWFTADTFGIDTSSCLPFMTNYSFHCNVCHHSGNTYFLRKQANLKEMCLSALANLT
notes: range 1-172; also called Flag-Ash2l-N; not shown: 3xFlag tag of the p3xFlag plasmid
B2: Nanog (endogenous, mouse embryonic stem cells) (other, UniProt Q80Z64 1-305, looked up)
chain: MSVGLPGPHSLPSSEEASNSGNASSMPAVFHPENYSCLQGSATEMLCTEAASPRPSSEDLPLQGSPDSSTSPKQKLSSPEADKGPEEEENKVLARKQKMRTVFSQAQLCALKDRFQKQKYLSLQQMQELSSILNLSYKQVKTWFQNQRMKCKRWQKNQWLKTSNGLIQKGSAPVEYPSIHCSYPQGYLVNASGSLSMWGSQTWTNPTWSSQTWTNPTWNNQTWTNPTWSSQAWTAQSWNGQPWNAAPLHNFGEDFLQPYVQLQQNFSASDLEVNLEATRESHAHFSTPQALELFLNYSVTPPGEI

Columns and labels:
[1] = target: Oct4 (endogenous, mouse embryonic stem cells) (mouse, UniProt P20263 1-352); assay: co-IP of Flag-tagged Ash2l constructs from nuclear extracts, Western blot
Experimental: (§1) For samples from gel filtration, we used Centricon (Millipore) to concentrate and desalt the fraction of elute. Cleared sample solution was obtained by centrifugation at 12 000 rpm for 30 min at 4° C., and 0.5-1.5 mg of the sample was used for immunoprecipitations. For identify interacting complex of Ash2l protein, sample was added into primary antibody for 2 h at […] followed by 2 h of further incubation with protein A/G-Sepharose beads. After washing three times with the lysis buffer, immunoprecipitated proteins were eluted from the beads by boiling for 5 min in SDS-PAGE sample buffer and analyzed by immunoblotting.
(§2) To identify the domain(s) of Ash2l responsible for this protein interaction, we constructed expression plasmids for Flag-tagged truncated Ash2l (Ash2l-N-terminus: 1-172, the PHD domain; and Ash2l-C-terminus: 387-623, the SPRY domain) and full-length Ash2l (Ash2l-full length: 1-623; FIG. 2D) for various experiments. First, we overexpressed truncated and full-length Ash2l proteins in HEK293T cells, and subjected the nuclear extracts to immunoprecipitation (FIG. 2E). Rbbp5 associated with full-length Ash2l and Ash2l-C, which is consistent with previous findings (26). Remarkably, Oct4, Sox2, and Nanog associated with full-length Ash2l and Ash2l-N terminus, but not Ash2l-C terminus (FIG. 2E). To further assess the direct protein-protein interaction, Ash2l-N, Ash2l-C, and full-length Ash2l recombinant proteins were purified from bacteria (FIG. 2G) and independently incubated with various recombinant proteins, including Oct4, Sox2 and Nanog, and the p300 (Taz domain) protein. As shown in the in vitro pull-down assays with further analysis using Western blot or Coomassie staining (FIG. 2F and 2G), Ash2l directly interacted with the master stemness factors, Oct4, Sox2, and Nanog through its N terminus (1-172) (FIG. 2F and 2G). We then used the ZDOCK software to simulate the molecular docking between Ash2l and Oct4 and further predicted that several residues at the N terminus of Ash2l, including K117, W118, E180, K190, N217, and K220, may be crucial for the recognition and interaction with Oct4 (FIG. 2H). To determine which residue(s) of Ash2l was important for its interaction with Oct4, we used immunoprecipitation to assess the binding abilities of different Flag-tagged Ash2l mutants (K117A, W118A, E180A, K190A, N217A, and K220A) to Myc-tagged Oct4.

[2] = target: Sox2 (endogenous, mouse embryonic stem cells) (mouse, UniProt P48432 1-319); assay: as above
Experimental: as §1, §2

[3] = target: B2; assay: as above
Experimental: as §1, §2

[4] = target: T1, Flag-tagged full-length Ash2l (Ash2l-Full length: 1-623) (UniProt Q91X20 1-623); assay: as above
T1 construct: range 1-623; Expressed in cells for co-IP, ChIP and reporter assays, or purified from E. coli BL21 for in vitro pull-downs; also called Flag-Ash2l^WT; Flag-Ash2l-F; not shown: 3xFlag tag of the p3xFlag plasmid
Experimental: as §1, §2

[5] = target: T2, Ash2l (endogenous, in nuclear extracts of mouse embryonic stem cells) (mouse, UniProt Q91X20 1-623, limits assumed); assay: co-IP from gel filtration fraction 1 of ESC nuclear extract; also fraction 3 after Wdr5 knockdown (Ash2l still interacted with OSN)
T2 construct: Endogenous protein in gel filtration fractions of ESC nuclear extracts or on ESC chromatin
Experimental: as §1
Nuclear extraction was performed according to the manual instruction. Biochemical fractionation of ESC extracts into seven fractions was performed as described previously (Ang et al., 2011). Briefly, ESCs were lysed with lysis buffer and applied onto […] column (HiPrep 16/60 Sephycryl). […]
To further understand the role of Ash2l in stemness regulation, we used gel filtration analysis (FIG. 2A) followed by Western blot to investigate the profiles of molecular complexes in the nuclei of ESCs (FIG. 2B). […] Subsequently, we assessed these OSN-enriched (fraction 1), OSN/WRD-enriched (fraction 3), and WRD-enriched fractions (fraction 4) in an immunoprecipitation assay. […]

Sequence of Sox2 (endogenous, mouse embryonic stem cells) (P48432 whole entry): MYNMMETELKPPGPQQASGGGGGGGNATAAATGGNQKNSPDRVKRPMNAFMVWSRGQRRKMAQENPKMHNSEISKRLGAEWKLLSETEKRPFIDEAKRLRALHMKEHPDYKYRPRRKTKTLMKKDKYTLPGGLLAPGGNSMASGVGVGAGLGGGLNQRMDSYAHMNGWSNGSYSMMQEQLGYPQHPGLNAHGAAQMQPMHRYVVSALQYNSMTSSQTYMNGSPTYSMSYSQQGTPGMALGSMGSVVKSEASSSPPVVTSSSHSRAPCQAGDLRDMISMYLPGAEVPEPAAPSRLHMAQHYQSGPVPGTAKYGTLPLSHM
Sequence of Oct4 (endogenous, mouse embryonic stem cells) (P20263 whole entry): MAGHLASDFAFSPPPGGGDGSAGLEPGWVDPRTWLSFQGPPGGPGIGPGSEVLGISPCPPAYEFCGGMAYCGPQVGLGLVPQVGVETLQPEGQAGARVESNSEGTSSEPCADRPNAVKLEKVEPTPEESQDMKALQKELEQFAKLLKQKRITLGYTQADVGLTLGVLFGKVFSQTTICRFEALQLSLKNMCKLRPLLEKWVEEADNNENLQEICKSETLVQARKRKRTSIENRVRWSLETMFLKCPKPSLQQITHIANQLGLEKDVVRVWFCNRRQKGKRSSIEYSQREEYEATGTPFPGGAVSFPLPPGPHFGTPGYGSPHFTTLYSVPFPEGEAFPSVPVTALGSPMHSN

Binder	binding result [1]	binding result [2]	binding result [3]	binding result [4]	binding result [5]
B1	binds	binds	binds		
B2				binds	binds

From patent US20210102174A1 (TAIPEI VETERANS GENERAL HOSPITAL, published 2021)
